Measurements: PMC9523049

Molecular target: Mec1-Ddc2 heterodimer (yeast (endogenous in cultured yeast cells)) (UniProt P38111)
Experiment: cryo-EM structure; Mec1-Ddc2 complex endogenously purified from yeast cells treated with HU (HU-Dimer1, HU-Dimer2) or MMS (MMS-Dimer)

Mec1-Ddc2 heterodimer, P38111 1-2368; Q04377 1-747
stoichiometry N: 2
